Data published in patent US20190016816A1 (APTEVO RESEARCH AND DEVELOPMENT, published 2019).
Values belong to the binder of their own block, whether it stands above or below them.

What was measured:
human 5T4 on cells [1] = molecular target: T1, human 5T4 on cells (human, UniProt Q13641 32-420); test: flow cytometry, TF-1 cells, PE goat anti-human Fc
T1 construct: also called TPBG; hu5T4
T1 sequence: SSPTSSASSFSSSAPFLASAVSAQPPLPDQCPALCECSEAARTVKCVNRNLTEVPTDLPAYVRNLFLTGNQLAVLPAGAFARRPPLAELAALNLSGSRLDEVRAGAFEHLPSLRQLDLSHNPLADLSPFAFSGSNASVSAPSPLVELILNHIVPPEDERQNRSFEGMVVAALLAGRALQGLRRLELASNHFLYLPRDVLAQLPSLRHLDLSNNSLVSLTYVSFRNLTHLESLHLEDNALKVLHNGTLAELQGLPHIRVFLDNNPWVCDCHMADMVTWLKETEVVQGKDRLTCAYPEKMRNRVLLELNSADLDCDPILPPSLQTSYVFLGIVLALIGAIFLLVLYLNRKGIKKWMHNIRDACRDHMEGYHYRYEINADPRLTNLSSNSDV
Procedure: A 3-fold titration of ALG.APV-210 construct (ranging from 100 nM to 0.14 nM) was incubated with the human 5T4-expressing cell lines for 40 minutes in FACS buffer at 4° C., washed 3 times, and detected with PE-labeled, goat-anti-human Fc secondary antibody (Jackson ImmunoResearch). Binding of ALG.APV-210 was detected by flow cytometry. All samples were run in duplicates. Nonlinear regression analysis to determine EC₅₀ values was performed in GraphPad Prism 6® graphing and statistics software.

human 5T4 on cells [2] = molecular target: T1, human 5T4 on cells; test: cell-based or functional assay
human 5T4 on cells [3] = molecular target: T1, human 5T4 on cells; test: flow cytometry, CT26 cells transfected with human 5T4 (low clone), biotinylated ALG.APV-210 + streptavidin-PE, 1 of 2 experiments
Procedure: (§1) Prior to the FACS staining, all cell lines were characterized for their 5T4 expression levels using a receptor density kit (Quantum Simply Cellular, anti-human IgG, Bangs Laboratories, Inc). Adherent cell lines were cultured according to their supplier's instructions and were harvested from their cell culture flasks using Trypsin/EDTA, counted in R10 medium in a Burker chamber, and diluted in FACS buffer (PBS+0.5% BSA, 0.05% NaN₃) to a concentration of 4×10⁶ cells/mL. 50 μL (0.20×10⁶) of cell solution was added to a 96-well FACS staining plate (Falcon #351190). Cells were incubated for 20 min in 4° C. with 50 μL of the biotinylated ALG.APV-210 (2× final concentration). The antibodies were added in a serial dilution starting at 20 μg/mL titrating down in a 12 step ½ dilution down to 0.010 μg/mL. […] Cells were analysed for ALG.APV-210 binding using flow cytometry (FACSVerse) by gating on single cells. MFI values (secondary antibody only subtracted) from 1 out of 2 independent experiments, as well as normalized data and EC₅₀-values of pooled data from 2 experiments were determined and plotted using GraphPad Prism 7, non-linear regression log (agonist) vs. normalized response—variable slope.
The binding (EC₅₀) of the biotinylated ALG.APV-210 to 5T4 when expressed on cells, either at endogenous levels on human tumor cells or on cells transfected to express 5T4 was assessed. […]

human 5T4 on cells [4] = molecular target: T1, human 5T4 on cells; test: flow cytometry, B16-hu5T4 cells, streptavidin-PE, normalized MFI of 2 pooled experiments
Procedure: as §1, with “μg/mL. Following 2× washing with FACS buffer, cells were incubated for 30 min in 4° C. with 100 μL of a secondary antibody (streptavidin-PE, BD #554061, diluted 1/500).” for “μg/mL.”

human 5T4 on cells [5] = molecular target: T1, human 5T4 on cells; test: flow cytometry, SKOV-3 cells, streptavidin-PE, normalized MFI of 2 pooled experiments
Procedure: as §1, with “μg/mL. Following 2× washing with FACS buffer, cells were incubated for 30 min in 4° C. with 100 μL of a secondary antibody (streptavidin-PE, BD #554061, diluted 1/500).” for “μg/mL.”

cynomolgus 5T4 on cells = molecular target: T2, cynomolgus 5T4 on cells (cynomolgus macaque, UniProt Q4R8Y9 35-420); test: flow cytometry, CHO-K1 cells expressing cynomolgus 5T4, labelled anti-human IgG secondary, MFI (median)
T2 construct: whole, on cells; also called CHO-K1/cynomolgus 5T4 transfectants
T2 sequence (looked up): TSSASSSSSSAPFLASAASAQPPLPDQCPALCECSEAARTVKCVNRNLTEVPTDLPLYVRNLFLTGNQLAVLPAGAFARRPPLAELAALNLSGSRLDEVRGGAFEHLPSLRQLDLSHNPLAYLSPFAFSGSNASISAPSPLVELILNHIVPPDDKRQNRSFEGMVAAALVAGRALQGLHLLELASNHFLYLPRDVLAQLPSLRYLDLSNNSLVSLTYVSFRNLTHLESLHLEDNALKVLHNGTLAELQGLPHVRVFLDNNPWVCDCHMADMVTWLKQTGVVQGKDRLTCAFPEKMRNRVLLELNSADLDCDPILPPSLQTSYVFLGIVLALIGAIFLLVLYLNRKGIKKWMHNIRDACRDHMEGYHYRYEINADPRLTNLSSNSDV
Procedure: Binding studies were performed by standard flow cytometry-based staining procedures two cell lines expressing 5T4:CHO-K1 cells (obtained from Alligator) transduced with human or cynomolgus macaque 5T4 and SKOV-3 human ovarian adenocarcinoma cells which express (human) 5T4. All labeling and washes were performed in U-bottom 96-well plates in saline buffer with 0.1% BSA and 2 mM EDTA. Cell were plated at approximately 100,000 cells per well and incubated with a range of 100 nM to 0.05 nM concentrations of test molecules in […], for 30 minutes on ice. Cells were washed three times then incubated for another 30 min on ice with fluorescently-labeled secondary polyclonal antibody, F(ab′)² goat anti-human IgG (Jackson ImmunoResearch Laboratories). The cells were then washed twice and the samples acquired in a BD LSRII or a Symphony A3 flow cytometer. The sample files were analyzed using FlowJo software; the mean fluorescence intensity (MFI-mean) or median fluorescence intensity (MFI-median) of the live population of cells in each well was calculated after gating on live cells (forward vs side scatter). Nonlinear regression analysis to determine EC₅₀ values was performed in GraphPad Prism 6® graphing and statistics software.

- EC50 (human 5T4 on cells [1]): 71 nM
- EC50 (nM), IFNγ release of human CD8+ T cells with HCT116 cells (human 5T4 on cells [2]): 0.17 nM
B1: ALG.APV-210 (bispecific antibody)
chain: EVQLLESGGGLVQPGGSLRLSCAASGFTFSHGSMYWVRQAPGKGLEWVSSISSGSGSTYYADSVKGRFTISHDNSKNTLYLQMNSLRAEDTAVYYCARSSYYGSYYSIDYWGQGTLVTVSSGGGGSGGGGSGGGGSGGGGSDIQMTQSPSSLSASVGDRVTITCRASQSISSYLNWYQQKPGKAPKLLIYAASSLQSGVPSRFSGSGSGTDFTLTISSLQPEDFATYYCQQYYDNLPTFGQGTKLEIKEPKSSDKTHTCPPCPAPEAAGAPSVFLFPPKPKDTLMISRTPEVTCVVVDVSHEDPEVKFNWYVDGVEVHNAKTKPREEQYNSTYRVVSVLTVLHQDWLNGKEYKCAVSNKALPAPIEKTISKAKGQPREPQVYTLPPSRDELTKNQVSLTCLVKGFYPSDIAVEWESNGQPENNYKTTPPVLDSDGSFFLYSKLTVDKSRWQQGNVFSCSVMHEALHNHYTQKSLSLSPGSGGGGSGGGGSGGGGSPSEVQLLESGGGLVQPGGSLRLSCAASGFTFSSYAMSWVRQAPGKCLEWVSAISGSGGSTYYADSVKGRFTISRDNSKNTLYLQMNSLRAEDTAVYYCARYYGGYYSAWMDYWGQGTLVTVSSGGGGSGGGGSGGGGSGGGGSDIQMTQSPSSLSASVGDRVTITCRASQSISSFLNWYQQKPGKAPKLLIYAASSLQSGVPSRFSGSGSGTDFTLTISSLQPEDSATYYCQQTYGYLHTFGCGTKLEIKR
notes: Optimized ADAPTIR scFv-Fc-scFv homodimer with stabilizing disulfide in the 1210 scFv; also called 5T4-CD137 bispecific antibody

B2: biotinylated ALG.APV-210 (bispecific antibody)
chain: B1 chain
notes: also called ALG.APV-210 (biotinylated for FACS detection)
- EC50 (read off the curve) (human 5T4 on cells [3]): ~10 nM
- EC50 (human 5T4 on cells [4]): 14 nM
- EC50 (human 5T4 on cells [5]): 15 nM

- EC50 (cynomolgus 5T4 on cells): 21 nM
- Maximum MFI (cynomolgus 5T4 on cells): 25400
B3: ALG.APV-187 (bispecific antibody)
chain: EVQLLESGGGLVQPGGSLRLSCAASGFTFSHGSMYWVRQAPGKGLEWVSSISSGSGSTYYADSVKGRFTISHDNSKNTLYLQMNSLRAEDTAVYYCARSSYYGSYYSIDYWGQGTLVTVSSGGGGSGGGGSGGGGSGGGGSDIQMTQSPSSLSASVGDRVTITCRASQSISSYLNWYQQKPGKAPKLLIYAASSLQSGVPSRFSGSGSGTDFTLTISSLQPEDFATYYCQQYYDNLPTFGQGTKLEIKSSEPKSSDKTHTCPPCPAPEAAGAPSVFLFPPKPKDTLMISRTPEVTCVVVDVSHEDPEVKFNWYVDGVEVHNAKTKPREEQYNSTYRVVSVLTVLHQDWLNGKEYKCAVSNKALPAPIEKTISKAKGQPREPQVYTLPPSRDELTKNQVSLTCLVKGFYPSDIAVEWESNGQPENNYKTTPPVLDSDGSFFLYSKLTVDKSRWQQGNVFSCSVMHEALHNHYTQKSLSLSPGSGGGGSGGGGSGGGGSPSEVQLLESGGGLVQPGGSLRLSCAASGFTFSSYAMSWVRQAPGKCLEWVSAISGSGGSTYYADSVKGRFTISRDNSKNTLYLQMNSLRAEDTAVYYCARYYGGYYSAWMDYWGQGTLVTVSSGGGGSGGGGSGGGGSGGGGSDIQMTQSPSSLSASVGDRVTITCRASQSISSFLNWYQQKPGKAPKLLIYAASSLQSGVPSRFSGSGSGTDFTLTISSLQPEDSATYYCQQTYGYLHTFGCGTKLEIKR
notes: Optimized ADAPTIR scFv-Fc-scFv homodimer with stabilizing disulfide in the 1210 scFv
